Measurements published in paper PMC8162480.

Target: T1, HER2 epitope peptide (extracellular juxtamembrane region) (human, UniProt P04626)
T1 chain: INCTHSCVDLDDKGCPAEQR
Assay: bead-bound peptide pull-down, HPLC detection

B1: HB5 (FITC-labeled) (ssDNA)
DNA: AACCGCCCAAATCCCTAAGAGTCTGCACTTGTCATTTTGTATATGTATTTGGTTTTTGGCTCTCACAGACACACTACACACGCACA
  Kd: 34.7 nM

B2: HB5-FITC-PL-Peptide probe (ssDNA)
DNA: B1 DNA
modifications: 5'-thiol-C6 conjugated via maleimide to …-PL-K(FITC)FK-Mal (PL = photocleavable o-nitrobenzyl linker)
  Kd: 67.4 nM
